Experiments:
[1] = molecular target: JR-FL gp120 ΔV1/ΔV2 (HIV-1); experiment: ELISA, antigen-coated wells
[2] = molecular target: HIV-1 Env of isolate JR-FL (subtype B pseudovirus) (HIV-1); experiment: cell-based or functional assay
[3] = molecular target: HIV-1 Env of isolate MGRM-Chronic-B-003 (subtype B pseudovirus) (HIV-1); experiment: cell-based or functional assay
[4] = molecular target: HIV-1 Env of isolate MGRM-AG-008 (HIV-1); experiment: cell-based or functional assay
[5] = molecular target: HIV-1 Env of isolate MGRM-Chronic-B-010 (subtype B pseudovirus) (HIV-1); experiment: cell-based or functional assay
[6] = molecular target: HIV-1 Env of isolate 92BR020 (subtype B pseudovirus) (HIV-1); experiment: cell-based or functional assay
[7] = molecular target: HIV-1 Env of isolate MGRM-AG-013 (HIV-1); experiment: cell-based or functional assay
[8] = molecular target: HIV-1 Env of isolate MGRM-AE-007 (HIV-1); experiment: cell-based or functional assay
[9] = molecular target: HIV-1 Env of isolate 93MW959 (HIV-1); experiment: cell-based or functional assay
[10] = molecular target: HIV-1 Env of isolate MGRM-AG-003 (HIV-1); experiment: cell-based or functional assay
[11] = molecular target: HIV-1 Env of isolate 92UG005 (pseudovirus) (HIV-1); experiment: cell-based or functional assay
[12] = molecular target: HIV-1 Env of isolate MGRM-AG-006 (HIV-1); experiment: cell-based or functional assay
[13] = molecular target: HIV-1 Env of isolate MGRM-AG-005 (HIV-1); experiment: cell-based or functional assay
[14] = molecular target: HIV-1 92BR020 Env (pseudovirus) (HIV-1); experiment: cell-based or functional assay
[15] = molecular target: HIV-1 Env of isolate MGRM-AG-001 (HIV-1); experiment: cell-based or functional assay
[16] = molecular target: HIV-1 Env of isolate 93IN905 (pseudovirus) (HIV-1); experiment: cell-based or functional assay
[17] = molecular target: HIV-1 Env of isolate 92WR021 (HIV-1); experiment: cell-based or functional assay

5345_I01 (PGT-137) (antibody), sequence (VH): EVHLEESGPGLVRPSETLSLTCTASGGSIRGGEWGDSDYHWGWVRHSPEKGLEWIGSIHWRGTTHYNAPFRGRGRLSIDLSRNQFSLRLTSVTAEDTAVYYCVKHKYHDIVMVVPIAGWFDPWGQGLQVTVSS
5345_I01 (PGT-137) (antibody), sequence (VL): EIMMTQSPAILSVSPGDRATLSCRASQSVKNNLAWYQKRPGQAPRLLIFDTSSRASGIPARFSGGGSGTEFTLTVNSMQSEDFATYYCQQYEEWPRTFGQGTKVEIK
5329_C19 (PGT-136) (antibody), sequence (VH): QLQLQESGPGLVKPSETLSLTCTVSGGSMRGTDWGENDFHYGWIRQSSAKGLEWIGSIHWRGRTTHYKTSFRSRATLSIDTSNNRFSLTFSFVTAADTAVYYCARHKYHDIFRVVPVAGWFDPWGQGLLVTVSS
5329_C19 (PGT-136) (antibody), sequence (VL): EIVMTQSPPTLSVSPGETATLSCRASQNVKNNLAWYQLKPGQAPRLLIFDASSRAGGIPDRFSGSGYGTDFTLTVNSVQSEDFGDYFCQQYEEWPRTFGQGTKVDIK

Substance: 4858_P08 (PGT-123) (antibody)
- EC50 [1]: 0.3 µg/mL
- IC50 (µg/mL), pseudovirus neutralization [2]: 0.014 µg/mL
- IC50 (µg/mL), pseudovirus neutralization [3]: 0.008 µg/mL
- IC50 [4]: 19.2 µg/mL
- IC50 (µg/mL), pseudovirus neutralization [5]: 0.009 µg/mL
- IC50 (µg/mL), pseudovirus neutralization [6]: 0.008 µg/mL
- IC50 [7]: 3.37 µg/mL
- IC50 [8]: > 50 µg/mL
- neutralization IC50 [9]: 0.011 µg/mL
- IC50 [10]: > 50 µg/mL
- IC50, pseudovirus neutralization [11]: 9.79 µg/mL
- IC50 [12]: 0.014 µg/mL
- IC50 [13]: 0.149 µg/mL
- neutralization IC50 (pseudovirus) [14]: 0.013 µg/mL
- IC50 [15]: 2.51 µg/mL

Substance: 4877_D15 (PGT-122) (antibody)
- EC50 [1]: 0.3 µg/mL
- IC50 (µg/mL), pseudovirus neutralization [2]: 0.026 µg/mL
- IC50 (µg/mL), pseudovirus neutralization [3]: 0.008 µg/mL
- IC50 [4]: > 50 µg/mL
- IC50 (µg/mL), pseudovirus neutralization [5]: 0.018 µg/mL
- IC50 (µg/mL), pseudovirus neutralization [6]: 0.021 µg/mL
- IC50 [7]: 0.521 µg/mL
- IC50 [8]: > 50 µg/mL
- neutralization IC50 [9]: 0.016 µg/mL
- IC50 [10]: 43.7 µg/mL
- IC50, pseudovirus neutralization [11]: > 50 µg/mL
- IC50 [12]: 0.028 µg/mL
- IC50 [13]: 33.9 µg/mL
- neutralization IC50 (pseudovirus) [14]: 0.0337 µg/mL
- IC50 [15]: 14.5 µg/mL

Substance: 5123_A06 (PGT-125) (antibody)
- EC50 [1]: 0.6 µg/mL
- IC50 (µg/mL), pseudovirus neutralization [2]: 0.009 µg/mL
- IC50 (µg/mL), pseudovirus neutralization [3]: 0.157 µg/mL
- IC50 [4]: > 50 µg/mL
- IC50 (µg/mL), pseudovirus neutralization [5]: 0.006 µg/mL
- IC50 (µg/mL), pseudovirus neutralization [6]: 0.016 µg/mL
- IC50 [7]: 0.004 µg/mL
- IC50 [8]: 0.876 µg/mL
- neutralization IC50 [9]: 37.5 µg/mL
- IC50 [10]: > 50 µg/mL
- IC50, pseudovirus neutralization [11]: > 50 µg/mL
- IC50 [12]: 0.008 µg/mL
- IC50 [13]: > 50 µg/mL
- neutralization IC50 (pseudovirus) [14]: 0.0214 µg/mL
- IC50 [15]: > 50 µg/mL

Substance: 5141_B17 (PGT-126) (antibody)
- EC50 [1]: 0.3 µg/mL
- IC50 (µg/mL), pseudovirus neutralization [2]: 0.014 µg/mL
- IC50 (µg/mL), pseudovirus neutralization [3]: 0.041 µg/mL
- IC50 [4]: > 50 µg/mL
- IC50 (µg/mL), pseudovirus neutralization [5]: 0.005 µg/mL
- IC50 (µg/mL), pseudovirus neutralization [6]: 0.015 µg/mL
- IC50 [7]: 0.008 µg/mL
- IC50 [8]: > 50 µg/mL
- neutralization IC50 [9]: 9.44 µg/mL
- IC50 [10]: > 50 µg/mL
- IC50, pseudovirus neutralization [11]: 0.037 µg/mL
- IC50 [12]: 0.01 µg/mL
- IC50 [13]: 1.21 µg/mL
- neutralization IC50 (pseudovirus) [14]: 0.0163 µg/mL
- IC50 [15]: > 50 µg/mL

Substance: 5145_B14 (PGT-127) (antibody)
- EC50 [1]: 0.7 µg/mL
- IC50 (µg/mL), pseudovirus neutralization [2]: 0.029 µg/mL
- IC50 (µg/mL), pseudovirus neutralization [3]: 0.12 µg/mL
- IC50 [4]: > 50 µg/mL
- IC50 (µg/mL), pseudovirus neutralization [5]: 0.019 µg/mL
- IC50 (µg/mL), pseudovirus neutralization [6]: 0.059 µg/mL
- IC50 [7]: 0.018 µg/mL
- IC50 [8]: > 50 µg/mL
- neutralization IC50 [9]: 6.95 µg/mL
- IC50 [10]: > 50 µg/mL
- IC50, pseudovirus neutralization [11]: 1.11 µg/mL
- IC50 [12]: 0.021 µg/mL
- IC50 [13]: > 50 µg/mL
- IC50 [15]: > 50 µg/mL

Substance: 5329_C19 (PGT-136) (antibody)
- EC50 [1]: 0.3 µg/mL
- Primary Neutralization Index (B cell culture supernatant) [16]: 5.6
- IC50 [17]: > 50 µg/mL
- neutralization IC50 (pseudovirus) [14]: > 10 µg/mL

Substance: 5343_B08 (PGT-135) (antibody)
- EC50 [1]: 0.1 µg/mL
- Primary Neutralization Index (B cell culture supernatant) [16]: 43
- IC50 [17]: > 50 µg/mL
- neutralization IC50 (pseudovirus) [14]: 0.104 µg/mL

Substance: 5345_I01 (PGT-137) (antibody)
- EC50 [1]: 0.2 µg/mL
- Primary Neutralization Index (B cell culture supernatant) [16]: 3.3
- IC50 [17]: 3.52 µg/mL

— US20250320281A1
